The target of test [1] is T1, FcγIIIA Receptor on the effector cells (human, UniProt P08637 17-254). Briefly: cell-based or functional assay.
For test [2], the target named is T2, FcγRIIIa 158F receptor (SPR assay) (UniProt P08637 17-208, limits assumed).
T2 construct: Immobilised on the SPR chip by amine coupling
Kind of test: SPR, receptor amine-coupled to the chip, antibody injected, steady state affinity; average of 4 values. As to the method: (§1) The method follows a direct binding assay methodology where the FcγRIIIa receptor is directly immobilized onto the flow cell on a sensor chip surface and samples are injected over the chip to assess binding. […] Independent duplicates of sample dilutions are injected over the chip, followed by surface regeneration between each cycle. The binding is measured in response units (RU). The kinetics of the binding reaction is determined by measuring changes in SPR due to the increase in mass in the close proximity to the biosensor chip surface. Change in the mass of the complex as a function of time is visualized as a sensorgram.
(§2) The equilibrium dissociation constants (K_D) of each sample is determined for each receptor.
(In general: SPR reads the build-up and loss of mass on a sensor chip optically.)

Test [3] addresses T3, HRP conjugated human C1q (human, UniProt P02745 23-245; P02746 28-253; P02747 29-245, peroxidase (HRP) conjugated; site not stated).
T3 construct: also called Peroxidase conjugated C1q
Kind of test: ELISA, antibody coated on the plate, HRP conjugated human C1q. The protocol:
(§3) The C1q binding assay used for this analysis is an ELISA assay. Samples were coated on ELISA plates, HRP conjugated human C1q is incubated with samples on the plate. The bound HRP, in the presence of substrate TMB, generates a colorimetric signal. […] Sample dilutions are coated onto ELISA plates, and the plates incubated for 1 hour±30 min at room temperature. After coating, the plates are washed, blocked, and washed again. Peroxidase conjugated C1q was added, and the plates incubated for 1.5 hours±30 minutes at room temperature. After incubation and washing, a tetramethylbenzidine (TMB) substrate solution was added and plates incubated at room temperature for 7 minutes (~1 min/+30 seconds). This produces a colorimetric reaction which is proportional to the level of C1q bound. The reaction is stopped with the addition of 1M sulfuric acid and the color is measured at 450 nm using a Molecular Devices SPECTRAMAX® microplate reader. SOFTMAX® PRO is used to analyze the data with weighted nonlinear regression using a 4-parameter logistic fit. […] EC50 of each test sample, based on the 4-parameter logistic fitted curve, were generated for additional information.
(In general: In an ELISA, binding on a coated surface is turned into a signal by an enzyme label.)

Test [4] deals with T4, CD20 on Jeko-1, Raji and Daudi cells (human, UniProt P11836 1-297).
T4 construct: whole, on cells; also called cell surface CD20
T4 sequence (looked up): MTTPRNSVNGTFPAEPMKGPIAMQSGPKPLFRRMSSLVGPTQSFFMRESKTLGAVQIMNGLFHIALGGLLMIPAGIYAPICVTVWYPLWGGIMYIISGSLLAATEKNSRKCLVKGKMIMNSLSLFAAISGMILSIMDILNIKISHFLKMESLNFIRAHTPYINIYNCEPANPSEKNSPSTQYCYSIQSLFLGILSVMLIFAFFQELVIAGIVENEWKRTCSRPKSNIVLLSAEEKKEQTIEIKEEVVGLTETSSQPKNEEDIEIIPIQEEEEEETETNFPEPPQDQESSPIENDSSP
Kind of test: cell-based MSD electrochemiluminescence binding assay on CD20 expressing Jeko-1 cells.

Test [5] deals with C1q in the complement system (rabbit serum as the source of complement) (rabbit). Kind of test: cell-based or functional assay.
For test [6], the target named is T4, CD20 on Jeko-1, Raji and Daudi cells. Kind of test: flow cytometry (FACS) on Daudi cells, PE conjugated anti-human secondary antibody; Daudi cells. The protocol: (§4) A six-point dilution series of the samples, in duplicates and in the concentration range of 40 μg/ml-0 ug/ml with a dilution factor of 5 were used. Cells were incubated with sample dilutions; binding was detected using a PE conjugated anti-human secondary antibody.
(A flow cytometer gives signals particle by particle.)

Test [7] concerns the target T2, FcγRIIIa 158F receptor (SPR assay). Briefly: SPR, receptor immobilised. As to the method: as §1, §2
In test [8] the target is T5, FcγRIIIa 158V receptor (SPR assay) (UniProt P08637 17-208, limits assumed).
T5 construct: Immobilised on the SPR chip by amine coupling; The 158V allotype uses mature numbering
Kind of test: SPR, receptor immobilised. As to the method: as §1, §2

Test [9] deals with T6, FcγRIIIB (human Fc receptor panel, Octet) (human, UniProt O75015 17-200).
T6 construct: Captured on anti-penta-His biosensors, so it carries a His tag
Briefly: BLI (Octet HTX), receptor on anti-penta-His biosensor, 1:1 model. As to the method:
(§5) This analysis was performed by LakePharma. Binding characterization were carried out on Octet HTX instrument at 25° C. Human Fc receptor panel were loaded onto Anti-Penta His (H1S1K) biosensors. Loaded sensors were dipped into a serial dilutions of the testing samples (300 nM start, 1:3 dilution, 7 points). Kinetic constants were calculated using a monovalent (1:1) binding model.

In test [10] the target is T7, FcγRIIIA F158 (human Fc receptor panel, Octet) (human, UniProt P08637 17-208).
T7 construct: Captured on anti-penta-His biosensors, so it carries a His tag; It is kept apart from the SPR receptor because the constructs may differ
The description is as above. As to the method: as §5

For test [11], the target named is T8, FcRn (human Fc receptor panel, Octet) (human, UniProt P55899 24-297; P61769 21-119).
T8 construct: Captured on anti-penta-His biosensors, so it carries a His tag
Described as above. As to the method:
as §5

Test [12] has as its target T9, FcγRIIIA V158 (human Fc receptor panel, Octet) (human, UniProt P08637 17-208).
T9 construct: Captured on anti-penta-His biosensors, so it carries a His tag; It is kept apart from the SPR receptor because the constructs may differ; also called FcγRIIIa 158V
The test is described as above. As to the method:
as §5

The target of test [13] is T10, FcγRI (human Fc receptor panel, Octet) (human, UniProt P12314 16-288, limits assumed).
T10 construct: Captured on anti-penta-His biosensors, so it carries a His tag
Described as above. As to the method:
as §5

Test [14] deals with T11, FcγRIIA (human Fc receptor panel, Octet) (human, UniProt P12318 36-218, limits assumed).
T11 construct: Captured on anti-penta-His biosensors, so it carries a His tag
T11 sequence (looked up): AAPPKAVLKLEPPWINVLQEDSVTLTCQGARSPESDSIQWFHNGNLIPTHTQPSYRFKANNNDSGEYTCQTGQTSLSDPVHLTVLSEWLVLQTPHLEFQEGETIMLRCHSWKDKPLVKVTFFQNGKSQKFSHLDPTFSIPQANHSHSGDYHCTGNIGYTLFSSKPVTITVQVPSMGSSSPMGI
The test is described as above. As to the method:
as §5

The target in test [15] is T12, FcγRIIB/C (human Fc receptor panel, Octet) (human, UniProt P31994 46-217, limits assumed).
T12 construct: Captured on anti-penta-His biosensors, so it carries a His tag
T12 sequence (looked up): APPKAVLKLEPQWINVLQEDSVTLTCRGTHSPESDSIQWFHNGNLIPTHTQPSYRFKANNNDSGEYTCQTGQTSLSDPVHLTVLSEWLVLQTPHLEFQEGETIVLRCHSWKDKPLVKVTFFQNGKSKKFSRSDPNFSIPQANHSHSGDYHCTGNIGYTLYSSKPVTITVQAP
Described as above. As to the method: as §5

The target in test [16] is T3, HRP conjugated human C1q. Kind of test: ELISA: antibody dilutions coated on the plate, HRP conjugated human C1q added, TMB, OD 450. As to the method:
as §3

In test [17] the target is T4, CD20 on Jeko-1, Raji and Daudi cells. Briefly: flow cytometry (FACS) on Raji cells, PE conjugated anti-human secondary antibody. As to the method:
as §4

For test [18], the target named is T1, FcγIIIA Receptor on the effector cells. Kind of test: cell-based or functional assay. The source holds these as a separate data set.
Test [19] deals with T5, FcγRIIIa 158V receptor (SPR assay). Kind of test: SPR, receptor amine-coupled to the chip, antibody injected, 1:1 kinetics; average of 4 values. The protocol: as §1, §2
Test [20] addresses T1, FcγIIIA Receptor on the effector cells. Briefly: cell-based or functional assay. This is another data set of the same source.

T1 sequence (P08637 17-254): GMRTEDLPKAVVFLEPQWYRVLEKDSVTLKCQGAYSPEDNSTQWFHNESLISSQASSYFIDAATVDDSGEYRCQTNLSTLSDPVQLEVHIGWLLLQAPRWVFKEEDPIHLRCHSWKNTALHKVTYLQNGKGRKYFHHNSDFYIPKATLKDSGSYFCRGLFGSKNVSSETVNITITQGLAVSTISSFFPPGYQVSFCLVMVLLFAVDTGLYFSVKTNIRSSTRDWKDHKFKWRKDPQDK
T5 sequence (P08637 17-208 F176V limits assumed): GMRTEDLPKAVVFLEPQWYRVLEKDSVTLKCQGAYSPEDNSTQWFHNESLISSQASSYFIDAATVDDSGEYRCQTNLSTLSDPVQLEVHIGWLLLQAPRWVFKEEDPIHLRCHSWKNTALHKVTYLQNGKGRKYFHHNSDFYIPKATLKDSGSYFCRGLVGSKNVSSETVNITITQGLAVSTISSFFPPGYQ
T2 sequence (P08637 17-208 limits assumed): as the sequence (P08637 17-208 F176V limits assumed) above, with V160F counted along it
T3 sequence (P02745 23-245 limits assumed, chain 1 of 3): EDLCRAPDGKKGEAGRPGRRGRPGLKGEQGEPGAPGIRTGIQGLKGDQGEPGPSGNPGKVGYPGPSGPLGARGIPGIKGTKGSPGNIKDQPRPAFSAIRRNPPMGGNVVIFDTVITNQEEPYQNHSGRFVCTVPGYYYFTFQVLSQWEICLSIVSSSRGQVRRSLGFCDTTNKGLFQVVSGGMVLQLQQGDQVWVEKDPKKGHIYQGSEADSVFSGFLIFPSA
T3 sequence (P02746 28-253 limits assumed, chain 2 of 3): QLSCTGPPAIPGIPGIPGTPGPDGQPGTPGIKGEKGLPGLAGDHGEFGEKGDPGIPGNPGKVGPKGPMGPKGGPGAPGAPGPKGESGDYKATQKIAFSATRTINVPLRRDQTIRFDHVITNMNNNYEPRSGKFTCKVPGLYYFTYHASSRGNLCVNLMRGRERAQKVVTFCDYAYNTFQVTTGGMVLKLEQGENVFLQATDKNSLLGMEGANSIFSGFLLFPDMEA
T3 sequence (P02747 29-245 limits assumed, chain 3 of 3): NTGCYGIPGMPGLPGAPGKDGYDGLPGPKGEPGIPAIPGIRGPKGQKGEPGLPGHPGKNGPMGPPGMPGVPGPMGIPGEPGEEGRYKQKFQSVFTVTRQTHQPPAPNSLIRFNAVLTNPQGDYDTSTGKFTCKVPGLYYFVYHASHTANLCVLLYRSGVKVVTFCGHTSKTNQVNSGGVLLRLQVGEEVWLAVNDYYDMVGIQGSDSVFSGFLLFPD
T9 sequence (P08637 17-208 F176V limits assumed): as the sequence (P08637 17-208 F176V limits assumed) above
T10 sequence (P12314 16-288 limits assumed): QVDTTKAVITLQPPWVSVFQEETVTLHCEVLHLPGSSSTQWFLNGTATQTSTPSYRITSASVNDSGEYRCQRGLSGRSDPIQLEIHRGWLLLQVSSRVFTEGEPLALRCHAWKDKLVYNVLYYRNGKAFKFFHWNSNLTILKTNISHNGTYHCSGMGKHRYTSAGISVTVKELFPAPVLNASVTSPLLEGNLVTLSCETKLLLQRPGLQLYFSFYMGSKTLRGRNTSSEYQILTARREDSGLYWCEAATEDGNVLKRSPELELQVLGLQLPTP
T7 sequence (P08637 17-208 limits assumed): as the sequence (P08637 17-208 F176V limits assumed) above, with V160F counted along it
T6 sequence (O75015 17-200 limits assumed): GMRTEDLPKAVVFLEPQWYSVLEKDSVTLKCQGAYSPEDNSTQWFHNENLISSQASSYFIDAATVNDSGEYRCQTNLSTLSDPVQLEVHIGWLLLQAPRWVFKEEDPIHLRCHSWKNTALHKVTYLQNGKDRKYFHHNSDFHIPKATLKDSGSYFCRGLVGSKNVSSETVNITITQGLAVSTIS
T8 sequence (P55899 24-297 limits assumed, chain 1 of 2): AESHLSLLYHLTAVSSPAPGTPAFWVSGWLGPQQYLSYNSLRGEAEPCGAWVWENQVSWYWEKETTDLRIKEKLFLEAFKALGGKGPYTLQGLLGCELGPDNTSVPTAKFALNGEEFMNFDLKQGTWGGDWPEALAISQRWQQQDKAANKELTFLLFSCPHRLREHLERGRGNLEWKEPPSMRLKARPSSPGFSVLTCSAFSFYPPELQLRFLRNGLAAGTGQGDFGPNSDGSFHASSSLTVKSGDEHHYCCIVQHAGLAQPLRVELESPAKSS
T8 sequence (P61769 21-119 limits assumed, chain 2 of 2): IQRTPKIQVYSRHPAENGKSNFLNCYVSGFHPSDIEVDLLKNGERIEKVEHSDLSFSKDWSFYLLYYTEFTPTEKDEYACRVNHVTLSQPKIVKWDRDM

B1: TG-1101 (TG Therapeutics, Inc.) (antibody, human IgG1, kappa)
heavy: not shown
light: QIVLSQSPAILSASPGEKVTMTCRASSSVSYMHWYQQKPGSSPKPWIYATSNLASGVPARFSGSGSGTSYSFTISRVEAEDAATYYCQQWTFNPPTFGGGTRLEIKRTVAAPSVFIFPPSDEQLKSGTASVVCLLNNFYPREAKVQWKVDNALQSGNSQESVTEQDSKDSTYSLSSTLTLSKADYEKHKVYACEVTHQGLSSPVTKSFNRGEC
notes: Chimeric IgG1 made in YB2/0 rat hybridoma cells, with low-fucose N-glycans; also called ublituximab; Ubli
Consider B1, for which, in test [1], the “ADCC EC50 (Raji target cells, KILR CD16a effector cells)” value is 0.00242 ng/mL. The Kd in test [2] was found to be 680 nM; in test [9], 169 nM; in [10] it was 56 nM; in test [11] it was 42 nM; in test [12], 23 nM; in test [13], 20 nM. Besides, the Kd was found to be 92 nM in [14], 158 nM in [15] and 64.1 nM in test [19]. The EC50 is 2600 ng/mL in test [3], 63 ng/mL in test [4], 983 ng/mL in [6] and 0.00202 ng/mL in test [17]. The “CDC EC50 (Jeko-1 cells, rabbit serum complement)” value in test [5] came out at 670 ng/mL. The “fold higher affinity than OCREVUS” value was roughly 10 fold in test [7] and roughly 15 fold in test [8]. Moreover, the “EC50 (read off the curve)” value in test [16] was roughly 3000 ng/mL. In addition, the “ADCC EC50, fold lower than OCREVUS” value in test [18] is roughly 25 fold. Further, the “EC50 of ADCC assay Using Primary NK Cells (Raji target cells, LDH release)” value in test [20] was 49000 ng/mL.

The Kd is the free concentration of one partner at which half of the binding sites on the other are occupied at equilibrium, for simple one-to-one binding. The low end stands for tighter binding, the high end for weaker binding. The term EC50 denotes the concentration at which the effect is half-maximal. The low end stands for a more potent agent, the high end for a less potent agent. The term EC50 (read off the curve) denotes the concentration that produces a half-maximal response.

The values are drawn from patent US11965032 (TG THERAPEUTICS, dated 2024).
